4 molecules from paper PMC4437028 (2015) can be followed below.

Experiment [1] deals with mouse Slitrk2 LRR1 (first leucine-rich repeat of Slit and Trk-like family member 2), wild type (UniProt Q810C0). As to the kind of experiment: SPR equilibrium analysis. The settings on record: point at 4 µM PTPδ Ig1-Fn1 (highest concentration); Slitrk2 LRR1 immobilized on a CM5 sensor tip; parent: est. 600; read off a plot.
For experiment [2], the target named is T1, mouse Slitrk2 LRR1 (first leucine-rich repeat of Slit and Trk-like family member 2), wild type (mouse, UniProt Q810C0 1-266, N-linked glycans).
T1 chain: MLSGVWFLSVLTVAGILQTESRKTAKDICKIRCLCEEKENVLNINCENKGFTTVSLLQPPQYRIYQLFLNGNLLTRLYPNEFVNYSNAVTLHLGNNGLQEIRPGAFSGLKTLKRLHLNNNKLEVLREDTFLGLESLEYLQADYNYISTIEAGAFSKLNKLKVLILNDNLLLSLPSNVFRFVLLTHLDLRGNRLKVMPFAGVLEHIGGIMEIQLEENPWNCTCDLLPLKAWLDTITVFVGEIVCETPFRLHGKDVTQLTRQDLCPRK
Put plainly: SPR.

The target in experiment [3] is T2, mouse Slitrk2 LRR1 (first leucine-rich repeat of Slit and Trk-like family member 2), wild type, Q810C0.
T2 chain: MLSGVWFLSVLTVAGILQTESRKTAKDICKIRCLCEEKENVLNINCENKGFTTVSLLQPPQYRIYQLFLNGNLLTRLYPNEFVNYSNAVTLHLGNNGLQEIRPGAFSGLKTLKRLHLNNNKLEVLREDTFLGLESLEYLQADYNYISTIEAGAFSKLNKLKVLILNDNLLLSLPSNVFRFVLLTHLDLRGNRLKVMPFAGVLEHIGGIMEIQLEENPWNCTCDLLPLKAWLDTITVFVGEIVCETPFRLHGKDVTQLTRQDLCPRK
Put plainly: SPR equilibrium analysis. To be noted: chain shown with the change, Slitrk2 LRR1 immobilized on a CM5 sensor tip.

Experiment [4] concerns the target T3, mouse Slitrk2 LRR1 R114A (mouse, UniProt Q810C0 1-266, R114A).
T3 sequence: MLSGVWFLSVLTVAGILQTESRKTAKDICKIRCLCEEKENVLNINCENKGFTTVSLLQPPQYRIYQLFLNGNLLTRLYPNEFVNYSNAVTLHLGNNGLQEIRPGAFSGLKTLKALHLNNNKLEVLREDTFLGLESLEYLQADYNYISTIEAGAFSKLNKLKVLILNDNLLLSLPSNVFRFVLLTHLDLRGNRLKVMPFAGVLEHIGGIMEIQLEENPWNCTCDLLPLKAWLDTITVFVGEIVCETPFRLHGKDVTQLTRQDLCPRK
Put plainly: SPR.

For experiment [5], the target named is T4, mouse Slitrk2 LRR1 F247A H250A (mouse, UniProt Q810C0 1-266, F247A | H250A).
T4 sequence: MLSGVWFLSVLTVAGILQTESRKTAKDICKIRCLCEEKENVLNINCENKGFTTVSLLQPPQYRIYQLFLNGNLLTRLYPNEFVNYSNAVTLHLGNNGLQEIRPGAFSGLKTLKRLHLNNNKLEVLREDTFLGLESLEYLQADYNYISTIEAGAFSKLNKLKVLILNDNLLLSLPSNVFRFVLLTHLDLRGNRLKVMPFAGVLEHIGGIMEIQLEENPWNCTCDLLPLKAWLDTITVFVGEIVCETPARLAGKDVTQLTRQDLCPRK
As to the kind of experiment: SPR.

Experiment [6] concerns the target mouse Slitrk2 LRR1 (first leucine-rich repeat of Slit and Trk-like family member 2), wild type (mouse) (UniProt Q810C0). Put plainly: crystal structure; Slitrk2 LRR1 and PTPδ Ig1-Fn1 mixed at a molar ratio of 1:1, treated with neuraminidase; sitting drop vapor diffusion, 293 K, 15% PEG4000, 0.1 M sodium acetate, 0.1 M MES (pH 6.0); 3.35 Å.

As to “mouse PTPδ Ig1-Fn1 (residues 28-418), splice variant meA9B+ (from UniProt Q64487) R236E”, the response (Response unit) in experiment [1] was determined as 97.

B1: mouse PTPδ Ig1-Fn1, splice variant meA-B+ (domain or fragment)
chain: ETPPRFTRTPVDQTGVSGGVASFICQATGDPRPKIVWNKKGKKVSNQRFEVIEFDDGSGSVLRIQPLRTPRDEAIYECVASNNVGEISVSTRLTVLREDQIPRGFPTIDMGPQLKVVERTRTATMLCAASGNPDPEITWFKDFLPVDTSNNNGRIKQLRSGALQIEQSEESDQGKYECVATNSAGTRYSAPANLYVRELREVRRVPPRFSIPPTNHEIMPGGSVNITCVAVGSPMPYVKWMLGAEDLTPEDDMPIGRNVLELNDVRQSANYTCVAMSTLGVIEAIAQITVKALPKPPGTPVVTESTATSITLTWDSGNPEPVSYYIIQHKPKNSEEPYKEIDGIATTRYSVAGLSPYSDYEFRVVAVNNIGRGPASEPVLTQ
B1: the Kd in experiment [2] was 451 nM.

B2: mouse PTPδ Ig1-Fn1 (residues 28-418), splice variant meA9B+, Q64487 Y273A (protein)
chain: ETPPRFTRTPVDQTGVSGGVASFICQATGDPRPKIVWNKKGKKVSNQRFEVIEFDDGSGSVLRIQPLRTPRDEAIYECVASNNVGEISVSTRLTVLREDQIPRGFPTIDMGPQLKVVERTRTATMLCAASGNPDPEITWFKDFLPVDTSNNNGRIKQLRSESIGGTPIRGALQIEQSEESDQGKYECVATNSAGTRYSAPANLYVRELREVRRVPPRFSIPPTNHEIMPGGSVNITCVAVGSPMPAVKWMLGAEDLTPEDDMPIGRNVLELNDVRQSANYTCVAMSTLGVIEAIAQITVKALPKPPGTPVVTESTATSITLTWDSGNPEPVSYYIIQHKPKNSEEPYKEIDGIATTRYSVAGLSPYSDYEFRVVAVNNIGRGPASEPVLTQ
B2: the Kd in experiment [3] (PTPδ Ig1-Fn1 injected, parent: 355.5 ± 6.5 nM) was determined as 312 nM. For the same molecule, the response (Response unit) in experiment [3] (point at 4 µM PTPδ Ig1-Fn1 (highest concentration), parent: est. 600, read off a …) amounted to 500.

B3: mouse PTPδ Ig1-Fn1 (residues 28-418), splice variant meA9B+ (domain or fragment)
chain: ETPPRFTRTPVDQTGVSGGVASFICQATGDPRPKIVWNKKGKKVSNQRFEVIEFDDGSGSVLRIQPLRTPRDEAIYECVASNNVGEISVSTRLTVLREDQIPRGFPTIDMGPQLKVVERTRTATMLCAASGNPDPEITWFKDFLPVDTSNNNGRIKQLRSESIGGTPIRGALQIEQSEESDQGKYECVATNSAGTRYSAPANLYVRELREVRRVPPRFSIPPTNHEIMPGGSVNITCVAVGSPMPYVKWMLGAEDLTPEDDMPIGRNVLELNDVRQSANYTCVAMSTLGVIEAIAQITVKALPKPPGTPVVTESTATSITLTWDSGNPEPVSYYIIQHKPKNSEEPYKEIDGIATTRYSVAGLSPYSDYEFRVVAVNNIGRGPASEPVLTQ
modifications: N-linked glycans
B3: the Kd in experiment [4] came to 257 nM; in experiment [2], 356 nM; in experiment [5], 580 nM. Also, the stoichiometry N in experiment [6] stood at 1.
